In IntAct's records for PubMed 31515488:

B1: Tektin-4 (Homo sapiens), Q8WW24 (parent)
chain: MAQTVPPCELPCKEYDVARNTGAYTSSGLATASFRTSKYLLEEWFQNCYARYHQAFADRDQSERQRHESQQLATETQALAQRTQQDSTRTVGERLQDTHSWKSELQREMEALAAETNLLLAQKQRLERALDATEVPFSITTDNLQCRERREHPNLVRDHVETELLKEAELIRNIQELLKRTIMQAVSQIRLNREHKETCEMDWSDKMEAYNIDETCGRHHSQSTEVQAHPYSTTFQESASTPETRAKFTQDNLCRAQRERLASANLRVLVDCILRDTSEDLRLQCDAVNLAFGRRCEELEDARYKLHHHLHKTLREITDQEHNVAALKQAIKDKEAPLHVAQTRLYLRSHRPNMELCRDAAQFRLLSEVEELNMSLTALREKLLEAEQSLRNLEDIHMSLEKDIAAMTNSLFIDRQKCMAHRTRYPTILQLAGYQ
partner: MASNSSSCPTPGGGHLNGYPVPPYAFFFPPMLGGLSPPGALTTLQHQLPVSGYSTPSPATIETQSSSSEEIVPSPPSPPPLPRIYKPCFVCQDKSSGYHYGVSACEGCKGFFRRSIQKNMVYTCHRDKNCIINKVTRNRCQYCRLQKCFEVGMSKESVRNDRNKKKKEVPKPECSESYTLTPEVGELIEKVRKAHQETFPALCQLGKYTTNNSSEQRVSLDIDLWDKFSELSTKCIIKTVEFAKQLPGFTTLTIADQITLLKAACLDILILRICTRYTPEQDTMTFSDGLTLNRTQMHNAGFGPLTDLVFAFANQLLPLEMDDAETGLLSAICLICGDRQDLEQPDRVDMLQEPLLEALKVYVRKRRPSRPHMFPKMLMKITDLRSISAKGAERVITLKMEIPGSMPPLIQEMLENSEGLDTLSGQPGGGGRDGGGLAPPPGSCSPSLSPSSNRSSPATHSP
B2: Filamin-binding LIM protein 1 (Homo sapiens), Q8WUP2 (parent)
chain: MASKPEKRVASSVFITLAPPRRDVAVAEEVRQAVCEARRGRPWEAPAPMKTPEAGLAGRPSPWTTPGRAAATVPAAPMQLFNGGCPPPPPVLDGEDVLPDLDLLPPPPPPPPVLLPSEEEAPAPMGASLIADLEQLHLSPPPPPPQAPAEGPSVQPGPLRPMEEELPPPPAEPVEKGASTDICAFCHKTVSPRELAVEAMKRQYHAQCFTCRTCRRQLAGQSFYQKDGRPLCEPCYQDTLERCGKCGEVVRDHIIRALGQAFHPSCFTCVTCARCIGDESFALGSQNEVYCLDDFYRKFAPVCSICENPIIPRDGKDAFKIECMGRNFHENCYRCEDCRILLSVEPTDQGCYPLNNHLFCKPCHVKRSAAGCC
partner: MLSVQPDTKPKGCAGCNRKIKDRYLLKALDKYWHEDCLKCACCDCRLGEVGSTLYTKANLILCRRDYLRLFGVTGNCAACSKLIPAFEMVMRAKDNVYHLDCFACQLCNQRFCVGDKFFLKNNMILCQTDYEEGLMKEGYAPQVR
B3: Proto-oncogene serine/threonine-protein kinase mos (Homo sapiens), P00540 (parent)
chain: MPSPLALRPYLRSEFSPSVDARPCSSPSELPAKLLLGATLPRAPRLPRRLAWCSIDWEQVCLLQRLGAGGFGSVYKATYRGVPVAIKQVNKCTKNRLASRRSFWAELNVARLRHDNIVRVVAASTRTPAGSNSLGTIIMEFGGNVTLHQVIYGAAGHPEGDAGEPHCRTGGQLSLGKCLKYSLDVVNGLLFLHSQSIVHLDLKPANILISEQDVCKISDFGCSEKLEDLLCFQTPSYPLGGTYTHRAPELLKGEGVTPKADIYSFAITLWQMTTKQAPYSGERQHILYAVVAYDLRPSLSAAVFEDSLPGQRLGDVIQRCWRPSAAQRPSARLLLVDLTSLKAELG
partner: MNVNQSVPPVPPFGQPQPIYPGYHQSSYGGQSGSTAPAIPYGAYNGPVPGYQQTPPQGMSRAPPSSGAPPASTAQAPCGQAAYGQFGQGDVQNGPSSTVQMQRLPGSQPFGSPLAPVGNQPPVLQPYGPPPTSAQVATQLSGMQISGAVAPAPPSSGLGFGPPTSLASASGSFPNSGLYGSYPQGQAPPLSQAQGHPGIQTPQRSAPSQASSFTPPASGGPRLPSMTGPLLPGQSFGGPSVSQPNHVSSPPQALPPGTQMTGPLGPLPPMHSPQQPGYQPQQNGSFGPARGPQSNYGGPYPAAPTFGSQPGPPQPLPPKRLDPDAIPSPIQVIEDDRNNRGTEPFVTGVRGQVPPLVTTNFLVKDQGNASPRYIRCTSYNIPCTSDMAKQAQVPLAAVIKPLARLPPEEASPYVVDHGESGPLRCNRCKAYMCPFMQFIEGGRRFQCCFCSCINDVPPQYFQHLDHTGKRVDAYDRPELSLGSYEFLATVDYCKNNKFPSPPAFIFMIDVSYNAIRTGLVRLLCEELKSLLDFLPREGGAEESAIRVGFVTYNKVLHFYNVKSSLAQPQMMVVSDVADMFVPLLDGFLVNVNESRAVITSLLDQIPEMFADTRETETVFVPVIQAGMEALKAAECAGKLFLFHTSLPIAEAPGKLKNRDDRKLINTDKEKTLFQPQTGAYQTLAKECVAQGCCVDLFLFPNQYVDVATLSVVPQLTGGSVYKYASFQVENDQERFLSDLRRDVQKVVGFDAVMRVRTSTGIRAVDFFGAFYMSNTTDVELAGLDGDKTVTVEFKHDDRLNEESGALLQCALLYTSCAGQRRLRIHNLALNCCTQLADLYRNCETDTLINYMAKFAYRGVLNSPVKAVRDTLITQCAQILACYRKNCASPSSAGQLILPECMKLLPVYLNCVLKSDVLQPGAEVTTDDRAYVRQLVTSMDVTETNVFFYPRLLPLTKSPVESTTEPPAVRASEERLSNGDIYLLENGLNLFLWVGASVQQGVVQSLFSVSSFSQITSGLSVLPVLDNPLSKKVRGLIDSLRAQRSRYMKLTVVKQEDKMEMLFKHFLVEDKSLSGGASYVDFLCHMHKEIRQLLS
B4: Protein SPMIP9 (Homo sapiens), Q96LM6 (parent)
chain: MAGVKYPGQDPVDLDIYQSSHMVDYQPYRKHKYSRVTPQEQAKLDAQLRDKEFYRPIPNPNPKLTDGYPAFKRPHMTAKDLGLPGFFPSQEHEATREDERKFTSTCHFTYPASHDLHLAQGDPNQVLQSADFPCLVDPKHQPAAEMAKGYLLLPGCPCLHCHIVKVPILNRWGPLMPFYQ
partner: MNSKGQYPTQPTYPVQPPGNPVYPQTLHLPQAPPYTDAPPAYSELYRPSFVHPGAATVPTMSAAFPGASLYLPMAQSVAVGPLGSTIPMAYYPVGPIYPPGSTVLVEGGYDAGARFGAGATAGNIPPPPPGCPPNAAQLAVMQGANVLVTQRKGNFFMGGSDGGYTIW

Variants of: B1
Details: with rara_human RARA

| Variant | effect of a mutation on the interaction |
| --- | --- |
| C272S | disrupting interaction strength |
| M374T | with no effect |
| D403N | with no effect |
| I404T | disrupting interaction strength |
| N409K | with no effect |

Variants of: B2
Details: with lmo3_human LMO3, Q8TAP4

| Variant | effect of a mutation on the interaction |
| --- | --- |
| E233K | with no effect |
| V174I | with no effect |

Variants of: B2
Details: with lmo3_human LMO3, Q8TAP4
Remark: another data set of the same source

| Variant | effect of a mutation on the interaction |
| --- | --- |
| Y204C | disrupting interaction strength |

Variants of: B3
Details: with sc24c_human SEC24C

| Variant | effect of a mutation on the interaction |
| --- | --- |
| A105S | with no effect |
| A123T | disrupting interaction strength |

Variants of: B4
Details: with dazp2_human DAZAP2, Q15038

| Variant | effect of a mutation on the interaction |
| --- | --- |
| I16V | with no effect |
